We go through 2 molecules from patent US7671062B2, “Modulators of chemokine receptor activity, crystalline forms and process” (Bristol-Myers Squibb Company, priority 2006, dated 2010).

One series concerns the target CCR2 (Homo sapiens, UniProt P41597). The series is described as follows: Cold competition ligand binding to hCCR2 using 125I-human MCP-1. To be noted: 125I-human MCP-1, n=8.
Series [1] is described as follows: Moisture-sorption isotherm. The series is classed as physicochemical. The note with it: ca. 25% to ca. 75% RH at 25° C. How it is done:
A sample of the oily, gel-like (amorphous) free base of N-((1R,2S,5R)-5-(isopropyl(methyl)amino)-2-((S)-2-oxo-3-(6-(trifluoromethyl)quinazolin-4-ylamino)pyrrolidin-1-yl)cyclohexyl)acetamide (approx 0.5 g), extracted from a sample of the BSA salt, was suspended in heptane (approx 5 mL). The flask was scratched with a metal spatula, and the suspension was stirred vigorously by a magnetic stir bar at 25° C. A white slurry of crystalline particles was obtained after 24 hours of stirring. The slurry was filtered and the wet cake dried in vacuo (40° C.) to provide the pure N-2 form (confirmed by PXRD) of the free base. Form N-2 was characterized by an XRD pattern which matches the simulated pattern generated from the single crystal structure data. Form N-2 is the neat (no solvate molecules or no molecules of water or solvent) form of N-((1R,2S,5R)-5-(isopropyl(methyl)amino)-2-((S)-2-oxo-3-(6-(trifluoromethyl)quinazolin-4-ylamino)pyrrolidin-1-yl)cyclohexyl)acetamide, free base. Form N-2, was characterized by a DSC thermogram having a melt endotherm onset typically at ca. 158° C. to ca. 162° C. Form N-2 was characterized by a TGA thermal curve having a negligible weight loss at up to ca. 145° C. which agreed with the single crystal structure data. The weight loss corresponded to adventitious solvent.

Sequence of CCR2 (P41597 whole entry): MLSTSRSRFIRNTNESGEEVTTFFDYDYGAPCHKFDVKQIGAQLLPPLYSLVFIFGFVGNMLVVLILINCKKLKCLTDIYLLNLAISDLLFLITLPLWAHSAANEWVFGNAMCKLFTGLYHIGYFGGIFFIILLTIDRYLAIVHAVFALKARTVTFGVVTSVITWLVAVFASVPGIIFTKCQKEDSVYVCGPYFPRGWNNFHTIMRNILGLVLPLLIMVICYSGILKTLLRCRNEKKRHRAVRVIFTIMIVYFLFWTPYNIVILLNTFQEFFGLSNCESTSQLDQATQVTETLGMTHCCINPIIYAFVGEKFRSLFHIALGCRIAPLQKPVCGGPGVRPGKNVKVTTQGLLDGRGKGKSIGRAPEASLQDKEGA

In the series with CCR2, “mouse MCP-1: mouse CCR2 ligand MCP-1 (chemokine)” registered a Kd of 0.91 nM.
With `CC(=O)N[C@@H]1C[C@H](N(C)C(C)C)CC[C@@H]1N1CC[C@H](Nc2ncnc3ccc(C(F)(F)F)cc23)C1=O` [Form N-2, N-((1R,2S,5R)-5-(isopropyl(methyl)amino)-2-((S)-2-oxo-3-(6-(trifluoromethyl)quinazolin-4-ylamino)pyrrolidin-1-yl)cyclohexyl)acetamide], the “moisture-sorption isotherm weight gain” value in series [1] came to 0.15%.
